Test results from patent US20240207319A1 (LUDWIG INSTITUTE FOR CANCER RESEARCH, published 2024).
Numbering of substitutions follows the chain as printed. One block for each binder: values may come before it.

Biological target: human PDL1 protein (plate-coated) (human, UniProt Q9NZQ7 19-238, limits assumed)
Test: titration ELISA, soluble monomeric decoy on plates coated with human PDL1 protein, anti-His tag detection
Method: FIGS. 9A, 9B, 9C, and 9D are a set of diagrams showing characterization of PD-1 decoy variants and hCD8+ T cells transduced with the PD-1 decoy variants and tEGFR. […] Bound PD1 decoy molecules were detected with an anti-His tag antibody. […] The engineered T cells were co-cultured at a 1:1 ratio with different PD-L1⁺ target tumor cells (100,000 of each cell type) for 48 hours. NA8 and HLA/A2+NY-ESO-1−, SAOS2, and A375 are HLA/A2+ NY-ESO-1+. The supernatants were collected after 48 hours, diluted 1 in 25, and evaluated for the presence of IFNγ using a commercial ELISA kit from Thermo). […] CD8 T cells engineered with PD1 decoy_tEGFR retrovirus were labeled with chromium. The engineered T cells were co-cultured with anti-EGFR Ab and co-cultured with different ratios of PBMCs from the same donor. The negative control is NT (non-transduced) T cells Killing evaluated at 4 hours. As positive control, T cells were treated with HCl.

Sequence of human PDL1 protein (plate-coated) (Q9NZQ7 19-238 limits assumed): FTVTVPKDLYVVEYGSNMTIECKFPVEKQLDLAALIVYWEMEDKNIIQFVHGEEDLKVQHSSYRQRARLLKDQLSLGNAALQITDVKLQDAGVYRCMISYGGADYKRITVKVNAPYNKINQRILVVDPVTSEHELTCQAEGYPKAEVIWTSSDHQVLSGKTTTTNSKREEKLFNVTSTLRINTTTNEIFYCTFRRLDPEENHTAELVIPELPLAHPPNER

- fold better binding than the WT PD1 decoy: 10 fold
B1: PD1_4XMUT_M70 (with 6xHis), soluble monomeric PD1 decoy variant (bacterial production) (receptor)
chain: MASDSPDRPWNPPTFSPALLVVTEGDNATFTCSFSNTSESFVLNWYRMSPSNQDDRLAAFPEDRSQPGQDARFRVTQLPNGRDFHMSVVRARRNDSGTYFCGAISLAPKAKIKESLRAELRVTERRALEHHHHHH

- fold better binding than the WT PD1 decoy: ~7.5 fold
B2: PD1_6XDM (with 6xHis), soluble monomeric PD1 decoy variant (bacterial production) (receptor)
chain: B1 chain with D54V, A110W
notes: also called 6×DM; variant 6×DM
